Source: publication PMC3457981, “The Role, Interaction and Regulation of the Velvet Regulator VelB in Aspergillus nidulans”

Molecular target: T1, GST-AbaA (Aspergillus nidulans, UniProt P20945 1-588)
T1 sequence: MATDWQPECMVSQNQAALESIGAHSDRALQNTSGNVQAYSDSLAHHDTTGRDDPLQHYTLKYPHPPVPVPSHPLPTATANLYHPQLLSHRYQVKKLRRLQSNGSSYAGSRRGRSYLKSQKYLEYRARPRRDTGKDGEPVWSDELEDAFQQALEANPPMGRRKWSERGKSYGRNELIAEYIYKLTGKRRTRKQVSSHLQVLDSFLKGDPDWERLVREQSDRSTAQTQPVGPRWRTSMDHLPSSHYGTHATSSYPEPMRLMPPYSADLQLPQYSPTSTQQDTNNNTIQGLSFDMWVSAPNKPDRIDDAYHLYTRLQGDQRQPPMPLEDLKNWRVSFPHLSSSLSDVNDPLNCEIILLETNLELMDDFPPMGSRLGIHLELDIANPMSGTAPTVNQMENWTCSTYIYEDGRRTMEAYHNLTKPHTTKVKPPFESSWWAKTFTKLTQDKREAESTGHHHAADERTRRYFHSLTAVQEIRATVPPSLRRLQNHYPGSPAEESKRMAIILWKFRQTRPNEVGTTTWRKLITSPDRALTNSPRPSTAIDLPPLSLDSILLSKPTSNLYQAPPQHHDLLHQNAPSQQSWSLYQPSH
Test: EMSA; 6% glycerol, 12 mM HEPES-KOH pH 7.6, 4 mM Tris-HCl pH 8.0, 1 mM EDTA, 0.5 mM DTT, 0-12 ug poly(dI-dC), ~10 ng probe in 24 ul; RT, 20 min; 6% PAGE, TBE
Settings: protein: recombinant; tags: N-terminal GST (pGEX-5X-1); label: 32P (5' end, T4 PNK); blunt

B1: velB EMSA probe 2 (dsDNA)
DNA 1: AGCTCCAGCTCCATTCCGCACGGTCATTCCGTTCTCGGCG
DNA 2: CGCCGAGAACGGAATGACCGTGCGGAATGGAGCTGGAGCT
binding result: binds

B2: velB EMSA probe 1 (dsDNA)
DNA 1: CAGCTCCATTCCGCACGGTCATTCC
DNA 2: GGAATGACCGTGCGGAATGGAGCTG
binding result: binds

B3: vosA EMSA probe 3 (dsDNA)
DNA 1: GTGGTTCCTTACCTCATTCCCGACCTTTTTTGCC
DNA 2: GGCAAAAAAGGTCGGGAATGAGGTAAGGAACCAC
binding result: binds
